From patent publication US20260209350A1 (Alector, published 2026) come the findings set out here.

Changes are numbered by the printed parent chain. Read-outs that look alike come from different tables or passages of the source.

For assay [1], the target named is T1, human TREM2 Fc fusion protein (human, UniProt Q9NZC2 19-174).
T1 construct: also called hTREM2-Fc; not shown: Fc part not specified
T1 sequence: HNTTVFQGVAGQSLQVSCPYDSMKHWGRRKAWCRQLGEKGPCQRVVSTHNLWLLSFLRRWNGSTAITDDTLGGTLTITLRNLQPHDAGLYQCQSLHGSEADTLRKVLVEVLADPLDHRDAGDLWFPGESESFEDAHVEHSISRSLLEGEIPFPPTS
Nature of the assay: ForteBio or MSD-SET, avid. In general terms: BLI is a label-free optical method that tracks binding on a fibre tip over time.

For assay [2], the target named is T2, mouse TREM2 Fc fusion protein (mouse, UniProt Q99NH8 19-171).
T2 construct: also called mTREM2-Fc; not shown: Fc part not specified
T2 sequence (looked up): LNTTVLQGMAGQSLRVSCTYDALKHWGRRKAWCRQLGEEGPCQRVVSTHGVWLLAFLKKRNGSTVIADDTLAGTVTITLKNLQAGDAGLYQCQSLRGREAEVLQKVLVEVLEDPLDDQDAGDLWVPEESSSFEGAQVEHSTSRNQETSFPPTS
Description: ForteBio or MSD-SET, avid.

Assay [3] addresses T3, human monomeric His tagged TREM2 protein (human, UniProt Q9NZC2 19-174).
T3 construct: also called hTREM2-HIS
T3 sequence: T1 sequence
Nature of the assay: ForteBio or MSD-SET, monovalent.
Description: (§1) The binding affinity of each anti-TREM2 antibody was determined by measuring their KD by ForteBio or MSD-SET. […] Briefly, ForteBio affinity measurements were performed by loading IgGs on-line onto AHQ sensors. Sensors were equilibrated off-line in assay buffer for 30 min and then monitored on-line for 60 seconds for baseline establishment. Sensors with loaded IgGs were exposed to 100 nM antigen for 5 minutes, then transferred to assay buffer for 5 min for off-rate measurement. Kinetics were analyzed using the 1:1 binding model.
Solution equilibrium titrations (SET) were performed in PBS+0.1% IgG-Free BSA (PBSF) with antigen held constant at 50 pM and incubated with 3- to 5-fold serial dilutions of antibody starting at 10 nM. Antibodies (20 nM in PBS) were coated onto standard bind MSD-ECL plates overnight at 4° C. or at room temperature for 30 min. Plates were then blocked for 30 min with shaking at 700 rpm, followed by three washes with wash buffer (PBSF+0.05% Tween 20). SET samples were applied and incubated on the plates for 150s with shaking at 700 rpm followed by one wash. Antigen captured on a plate was detected with 250 ng/mL sulfotag-labeled streptavidin in PBSF by incubation on the plate for 3 min. The plates were washed three times with wash buffer and then read on the MSD Sector Imager 2400 instrument using 1× Read Buffer T with surfactant. […]

In assay [4] the target is T4, mouse TREM2 on cells (mouse, UniProt Q99NH8 19-227).
T4 construct: whole, on cells; Used for the recombinant protein on BWZ/BW cells (with mouse DAP12) and for the native protein on mouse macrophages and dendritic cells; the cell type stands under assay; also called mTREM2; mTrem2
T4 sequence (looked up): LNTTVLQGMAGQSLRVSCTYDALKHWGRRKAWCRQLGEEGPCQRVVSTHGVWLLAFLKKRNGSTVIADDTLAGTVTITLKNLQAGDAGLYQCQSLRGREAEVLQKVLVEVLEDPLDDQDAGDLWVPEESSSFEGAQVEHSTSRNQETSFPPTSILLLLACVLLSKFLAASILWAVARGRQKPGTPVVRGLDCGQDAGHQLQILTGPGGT
Description: FACS, BWZ T2 cells.

In assay [5] the target is T5, human TREM2 on primary human cells (human, UniProt Q9NZC2 19-230).
T5 sequence: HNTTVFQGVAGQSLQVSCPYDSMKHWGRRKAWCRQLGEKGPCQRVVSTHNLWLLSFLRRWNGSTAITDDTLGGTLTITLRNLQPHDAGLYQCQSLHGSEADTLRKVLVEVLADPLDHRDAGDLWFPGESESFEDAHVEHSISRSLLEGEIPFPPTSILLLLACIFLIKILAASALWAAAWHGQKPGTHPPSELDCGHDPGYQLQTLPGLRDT
Nature of the assay: cell-based or functional assay.

Assay [6] has as its target T1, human TREM2 Fc fusion protein. Nature of the assay: ForteBio or MSD-SET, avid. The source holds these as a separate data set.
Description: as §1
(§2) Solution equilibrium titrations (SET) were performed in PBS+0.1% IgG-Free BSA (PBSF) with antigen held constant at 50 pM and incubated with 3- to 5-fold serial dilutions of antibody starting at 10 nM. Antibodies (20 nM in PBS) were coated onto standard bind MSD-ECL plates overnight at 4° C. or at room temperature for 30 min. Plates were then blocked for 30 min with shaking at 700 rpm, followed by three washes with wash buffer (PBSF+0.05% Tween 20). SET samples were applied and incubated on the plates for 150s with shaking at 700 rpm followed by one wash. Antigen captured on a plate was detected with 250 ng/mL sulfotag-labeled streptavidin in PBSF by incubation on the plate for 3 min. The plates were washed three times with wash buffer and then read on the MSD Sector Imager 2400 instrument using 1×Read Buffer T with surfactant. The percent free antigen was plotted as a function of titrated antibody in Prism and fit to a quadratic equation to extract the KD. To improve throughput, liquid handling robots were used throughout MSD-SET experiments, including SET sample preparation.
Assay [7] deals with T2, mouse TREM2 Fc fusion protein. Description: ForteBio or MSD-SET, avid. The source holds these as a separate data set.
Description: as §1, §2
Assay [8] has as its target T4, mouse TREM2 on cells. Nature of the assay: FACS, WT mouse macrophages. For orientation: A flow cytometer gives signals particle by particle.
Description: (§3) Cells were harvested, plated at 10⁵/ml in a 96 well plate, washed, and incubated in 100 ul PBS containing 10-50 ug/ml Mab and Fc blocking reagent for 1 hour in ice. Cells were then washed twice and incubated in 100 ul PBS containing 5 ug/ml PE-conjugated secondary antibody for 30 minutes in ice. Cells were washed twice in cold PBS and acquired on a BD FACS Canto. Data analysis and calculation of MFI values was performed with FlowJo (TreeStar) software version 10.0.7.
The target in assay [9] is T4, mouse TREM2 on cells. Description: FACS, WT mouse dendritic cells.
Description: as §3
In assay [10] the target is T3, human monomeric His tagged TREM2 protein. Description: ForteBio or MSD-SET, monovalent. This is another data set of the same source.
Description: as §1, §2
In assay [11] the target is T5, human TREM2 on primary human cells. Description: FACS, primary human dendritic cells.
Assay [12] has as its target T4, mouse TREM2 on cells. Nature of the assay: FACS, mTrem2 cells.
Assay [13] addresses T1, human TREM2 Fc fusion protein. Description: ForteBio or MSD-SET, avid. This is another data set of the same source.
In assay [14] the target is T2, mouse TREM2 Fc fusion protein. Description: ForteBio or MSD-SET, avid. The source holds these as a separate data set.
Assay [15] concerns the target T3, human monomeric His tagged TREM2 protein. Nature of the assay: ForteBio or MSD-SET, monovalent. This is another data set of the same source.

B1: Ab21 (antibody, human IgG1, V domains shown)
VH: EVQLVQSGAEVKKPGESLKISCKGSGYSFTTYWIGWVRQMPGKGLEWMGIIYPGDSDTRYSPSFQGQVTISADKSISTAYLQWSSLKASDTAMYYCARAGHYDGGHLGMDVWGQGTTVTVSS
VL: EIVMTQSPGTLSLSPGERATLSCRASQSVSSSYLAWYQQKPGQAPRLLIYGASNRATGIPDRFSGSGSGTDFTLTISRLEPEDFAVYYCQQDDSAPYTFGGGTKVEIK
notes: human IgG1; also called antibody 21
As for B1, the values for the Kd in assay [1], in assay [2] and in assay [3] were 0.344 nM, 0.227 nM and 1.14 nM, respectively.

B2: Ab22 (antibody, human IgG1, V domains shown)
VH: B1 VH
VL: B1 VL with N54S, S94R, A95S
notes: human IgG1
On to B2, for which the MFI came to 12500 MFI in assay [4], 110 MFI in assay [8] and 451 MFI in assay [9]. The “Induction of CD86 & CD83 Human hDC plate (% CD83+CD86+ cells)” value in [5] came out at 74.5%. In assay [5], the “Induction of CD86 & CD83 hDC solution (% CD83+CD86+ cells)” value came out at 1.2%. Besides, the results for the Kd in [6], in assay [7] and in assay [10] were 0.306 nM, 0.34 nM and 1.01 nM, respectively. Moreover, the hDC % positive in assay [11] was 76.9%.

B3: Ab65 (antibody, human IgG1, V domains shown)
VH: EVQLVQSGAEVKKPGESLKISCKGSGYSFTSYWIGWVRQMPGKGLEWMGIIYPGDSDTRYSPSFQGQVTISADKSISTAYLQWSSLKASDTAMYYCARLGRKPSGSVAFDIWGQGTMVTVSS
VL: EIVLTQSPATLSLSPGERATLSCRASQSVSSYLAWYQQKPGQAPRLLIYDASNRATGIPARFSGSGSGTDFTLTISSLEPEDFAVYYCQQDYSWPYTFGGGTKVEIK
notes: human IgG1
On to B3, for which the MFI came out at 16100 MFI in assay [4], 165 MFI in [8] and 642 MFI in assay [9]. In assay [5], the “Induction of CD86 & CD83 Human hDC plate (% CD83+CD86+ cells)” value is 74%. Also, the “Induction of CD86 & CD83 hDC solution (% CD83+CD86+ cells)” value in [5] worked out at 1.7%. The results for the Kd in assay [6], in assay [7] and in [10] were 0.546 nM, 1.56 nM and 5.01 nM, respectively. The hDC % positive in assay [11] was 76.9%.

B4: Ab14 (antibody, human IgG1, V domains shown)
VH: QVQLQESGPGLVKPSQTLSLTCTVSGGSISSGGYYWSWIRQHPGKGLEWIGNIYYSGSTVYNPSLKSRVTISVDTSKNQFSLKLSSVTAADTAVYYCARGLYGYGVLDVWGQGTMVTVSS
VL: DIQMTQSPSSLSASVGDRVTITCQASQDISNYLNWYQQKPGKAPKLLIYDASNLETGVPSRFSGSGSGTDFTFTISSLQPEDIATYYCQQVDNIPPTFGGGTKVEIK
notes: human IgG1
For the molecule B4, the MFI in assay [4] was determined as 11600 MFI; in assay [8] it was 145 MFI; in [9], 529 MFI. Besides, the “Induction of CD86 & CD83 Human hDC plate (% CD83+CD86+ cells)” value in [5] was found to be 78.7%. Also, the “Induction of CD86 & CD83 hDC solution (% CD83+CD86+ cells)” value in [5] is 1.9%. The Kd (commonly the free concentration of one partner at which half of the binding sites on the other are occupied at equilibrium, for simple one-to-one binding) in [6] was determined as 0.551 nM; in assay [7], 0.62 nM; in assay [10], 3.19 nM. The molecule further had a hDC % positive in assay [11] of 75.8%.

B5: Ab52 (antibody, human IgG1, V domains shown)
VH: QVQLVQSGAEVKKPGASVKVSCKASGYTFTSYYIHWVRQAPGQGLEWMGIINPSGGSTSYAQKFQGRVTMTRDTSTSTVYMELSSLRSEDTAVYYCAREADDSSGYPLGLDVWGQGTMVTVSS
VL: EIVMTQSPATLSVSPGERATLSCRASQSVSSNLAWYQQKPGQAPRLLIYGASTRATGIPARFSGSGSGTEFTLTISSLQSEDFAVYYCQQVNSLPPTFGGGTKVEIK
notes: human IgG1; also called antibody 52
Regarding B5, the MFI in [12] worked out at 15600 MFI. Further, the equilibrium dissociation constant (Kd) worked out at 1.51 nM in [1]; 0.0896 nM in assay [2]; 1.51 nM in assay [13]; 0.0896 nM in [14]; 5.75 nM in [3]; 5.75 nM in assay [15].
